Laboratory results published in patent publication US20080085261A1, “Vaccine Adjuvant” (priority 2004, published 2008).

Tested on: T regulatory phenotype cells
Set-up: species or system non-human primate
Settings: in vivo

B1: daclizumab (antibody, chains of the INN, looked up, V domains shown)
VH: QVQLVQSGAEVKKPGSSVKVSCKASGYTFTSYRMHWVRQAPGQGLEWIGYINPSTGYTEYNQKFKDKATITADESTNTAYMELSSLRSEDTAVYYCARGGGVFDYWGQGTLVTVSS
VL: DIQMTQSPSTLSASVGDRVTITCSASSSISYMHWYQQKPGKAPKLLIYTTSNLASGVPARFSGSGSGTEFTLTISSLQPDDFATYYCHQRSTYPLTFGQGTKVEVK
  time of maximum depletion in % and number of T regulatory phenotype cells: 2 weeks
  time until which depletion of T regulatory phenotype cells lasted: 4 weeks
